Test results published in article PMC12366243, “Genomic context analysis enables the discovery of an unusual NAD‐dependent racemase in phosphonate catabolism” (The Febs Journal, 2025).
Values belong to the compound of their own block, whether it stands above or below them.

Tests used:
[1] = biological target: T1, PbfF (2-amino-1-hydroxyethylphosphonate racemase; HAEP racemase) (Mesorhizobium plurifarium, UniProt A0A090EUR6); test: continuous coupled assay (PbfA, PhnX, NADP-dependent ADH), NADPH decrease at […] nm; type: biochemical
T1 construct: full-length, codon-optimized synthetic gene in pET24-C-His-tag (NdeI/NotI), C-terminal His tag kept; E. coli Tuner (DE3)
T1 sequence (A0A090EUR6 1-336): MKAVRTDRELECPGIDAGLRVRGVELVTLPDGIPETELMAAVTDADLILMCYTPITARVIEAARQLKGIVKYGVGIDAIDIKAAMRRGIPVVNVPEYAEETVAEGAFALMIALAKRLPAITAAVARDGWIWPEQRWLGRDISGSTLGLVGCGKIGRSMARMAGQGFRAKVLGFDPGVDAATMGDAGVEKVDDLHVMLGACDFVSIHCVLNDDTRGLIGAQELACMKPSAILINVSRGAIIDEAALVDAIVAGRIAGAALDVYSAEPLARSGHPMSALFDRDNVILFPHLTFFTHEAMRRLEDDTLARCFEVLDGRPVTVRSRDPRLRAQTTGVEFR

NC[C@@H](O)P(=O)(O)O = test system: T2, NC[C@@H](O)P(=O)(O)O; test: purified protein; type: biochemical, Mesorhizobium plurifarium; details: 1 mM NAD+, 5 mM MgCl2, 50 mM TEA-HCl pH 8.0, 25 °C, S-HAEP to R-HAEP
T2 construct: full-length, codon-optimized synthetic gene in pET24-C-His-tag (NdeI/NotI), C-terminal His tag kept; E. coli Tuner (DE3)

[2] = test system: T3, NC(=O)c1ccc[n+]([C@@H]2O[C@H](COP(=O)(O)OP(=O)(O)OC[C@H]3O[C@@H](n4cnc5c(N)ncnc54)[C@H](O)[C@@H]3O)[C@@H](O)[C@H]2O)c1; test: purified protein; type: biochemical, Mesorhizobium plurifarium; details: 1 mM S-HAEP, 5 mM MgCl2, 50 mM TEA-HCl pH 8.0, 25 °C, exogenous NAD+, varied: cofactor
T3 construct: full-length, codon-optimized synthetic gene in pET24-C-His-tag (NdeI/NotI), C-terminal His tag kept; E. coli Tuner (DE3)

[3] = biological target: 2-amino-1-hydroxyethylphosphonate racemase (PbfF) from Mesorhizobium plurifarium (Mesorhizobium plurifarium); test: SEC; analytical SEC, data not shown; 50 uL of 108 uM PbfF (monomer concentration) on Superdex 200 Increase 5/150 GL; 50 mM Tris, 200 mM NaCl, pH 7.9; 0.3 mL/min; calibrated with proteins of known molecular mass

inhibition at 60 µM [1]: ~50%
Compound: NC(=O)C1=CN([C@@H]2O[C@H](COP(=O)(O)OP(=O)(O)OC[C@H]3O[C@@H](n4cnc5c(N)ncnc54)[C@H](O)[C@@H]3O)[C@@H](O)[C@H]2O)C=CC1 [NADH]

Compound: PbfF (2-amino-1-hydroxyethylphosphonate racemase; HAEP racemase) (Mesorhizobium plurifarium)
Km (NC[C@@H](O)P(=O)(O)O): 530 µM | kcat (NC[C@@H](O)P(=O)(O)O): 6.6 s⁻¹ | K0.5 [2]: 200 µM

stoichiometry N [3]: 2
Compound: 2-amino-1-hydroxyethylphosphonate racemase (PbfF) from Mesorhizobium plurifarium (enzyme)
